Positions count from the first letter of the chain named.
B1: IL6R-P772/IL6R-L (antibody, human IgG1, kappa)
heavy: QVQLQESGPGLVKPSETLSLTCAVSGHSISHDHAWSWVRQPPGEGLEWIGFISYSGITNYNPSLQGRVTISRDNSKNTLYLQMNSLRAEDTAVYYCARSLARTTAMDYWGEGTLVTVSSASTKGPSVFPLAPSSKSTSGGTAALGCLVKDYFPEPVTVSWNSGALTSGVHTFPAVLQSSGLYSLSSVVTVPSSSLGTQTYICNVNHKPSNTKVDKKVEPKSCDKTHTCPPCPAPELLGGDSVFLFPPKPKDTLMISRTPEVTCVVIDVSHEDGEVKFNWYVDGVEVHNAKTKPREEQYNSTYRVVSVLTVLHQDWLNGKEYKCEVSNKALPAPIEKTISKAKGQPREPQVYTLPPSRDELTKNQVSLTCLVKGFYPSDIAVEWESNGQPENNYKTTPPVLDSDGSFFLYSKLTVDKSRWQQGNVFSCSVMHEALHNHYTQKSLSLSP
light: not shown
B2: IL6R-P780/IL6R-L (antibody, human IgG1, kappa)
heavy: B1 heavy with S269A, H270E
light: not shown
B3: IL6R-P776/IL6R-L (antibody, human IgG1, kappa)
heavy: B1 heavy with I266V
light: not shown
B4: IL6R-P786/IL6R-L (antibody, human IgG1, kappa)
heavy: B1 heavy with G239D, I266V, G273P, S300A, E324K, A329G, A332S, P333S
light: not shown
B5: IL6R-P787/IL6R-L (antibody, human IgG1, kappa)
heavy: B1 heavy with E235D, G239D, I266V, G273P, S300A, E324K, A329G, A332S, P333S
light: not shown
B6: IL6R-P774/IL6R-L (antibody, human IgG1, kappa)
heavy: B1 heavy with I266V, S269A, H270E
light: not shown
B7: IL6R-P784/IL6R-L (antibody, human IgG1, kappa)
heavy: B1 heavy with E235D, G239D, I266V, G273P, E324K, A329G, A332S, P333S
light: not shown
B8: IL6R-P773/IL6R-L (antibody, human IgG1, kappa)
heavy: B1 heavy with I266V, S269A, H270E, E324A
light: not shown
B9: IL6R-P775/IL6R-L (antibody, human IgG1, kappa)
heavy: B1 heavy with I266V, E324A
light: not shown
B10: IL6R-P777/IL6R-L (antibody, human IgG1, kappa)
heavy: B1 heavy with E235D, S269A, H270E, E324A
light: not shown
B11: IL6R-P783/IL6R-L (antibody, human IgG1, kappa)
heavy: B1 heavy with G239D, I266V, G273P, E324K, A329G, A332S, P333S
light: not shown
B12: IL6R-P778/IL6R-L (antibody, human IgG1, kappa)
heavy: B1 heavy with E235D, S269A, H270E
light: not shown
notes: also called IL6B-P778/IL6R-L
B13: IL6R-P779/IL6R-L (antibody, human IgG1, kappa)
heavy: B1 heavy with S269A, H270E, E324A
light: not shown
B14: IL6R-P785/IL6R-L (antibody, human IgG1, kappa)
heavy: B1 heavy with E235D, I266V, G273P, S300A, E324K, A329G, A332S, P333S
light: not shown
B15: IL6R-P782/IL6R-L (antibody, human IgG1, kappa)
heavy: B1 heavy with E235D, I266V, G273P, E324K, A329G, A332S, P333S
light: not shown
B16: IL6R-P781/IL6R-L (antibody, human IgG1, kappa)
heavy: B1 heavy with I266V, G273P, S300A, E324K, A329G, A332S, P333S
light: not shown
B17: IL6R-P787/IL6R-L (antibody, human IgG1, kappa)
heavy: B1 heavy with E235D, G239D, I266V, G273P, S300A, E324K, A329G, A332S, P333S
light: not shown
B18: IL6R-P555/IL6R-L (antibody, human IgG1, kappa)
heavy: B1 heavy with G239D, I266V, H270D, E324K
light: not shown
B19: IL6R-P785/IL6R-L (antibody, human IgG1, kappa)
heavy: B1 heavy with E235D, I266V, G273P, S300A, E324K, A329G, A332S, P333S
light: not shown
B20: IL6R-P786/IL6R-L (antibody, human IgG1, kappa)
heavy: B1 heavy with G239D, I266V, G273P, S300A, E324K, A329G, A332S, P333S
light: not shown

These binders were tested against T1, human complement C1q (human, UniProt P02745 23-245; P02746 28-253; P02747 29-245) (assay: SPR, C1q bound per antibody captured on Protein L).
T1 construct: Bought (PROSPEC or Calbiochem); also called human C1q
T1 sequence (P02745 23-245 limits assumed, chain 1 of 3): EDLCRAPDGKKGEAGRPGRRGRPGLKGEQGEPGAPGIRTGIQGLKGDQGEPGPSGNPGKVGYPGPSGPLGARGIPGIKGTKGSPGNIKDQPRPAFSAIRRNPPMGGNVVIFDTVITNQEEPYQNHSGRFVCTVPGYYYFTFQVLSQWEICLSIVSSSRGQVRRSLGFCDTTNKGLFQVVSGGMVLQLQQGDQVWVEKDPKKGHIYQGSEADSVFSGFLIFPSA
T1 sequence (P02746 28-253 limits assumed, chain 2 of 3): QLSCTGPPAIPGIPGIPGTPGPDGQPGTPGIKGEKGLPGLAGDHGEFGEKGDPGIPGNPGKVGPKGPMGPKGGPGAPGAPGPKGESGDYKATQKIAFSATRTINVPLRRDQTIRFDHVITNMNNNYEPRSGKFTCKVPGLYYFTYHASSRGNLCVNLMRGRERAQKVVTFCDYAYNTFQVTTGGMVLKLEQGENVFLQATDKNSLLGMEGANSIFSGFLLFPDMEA
T1 sequence (P02747 29-245 limits assumed, chain 3 of 3): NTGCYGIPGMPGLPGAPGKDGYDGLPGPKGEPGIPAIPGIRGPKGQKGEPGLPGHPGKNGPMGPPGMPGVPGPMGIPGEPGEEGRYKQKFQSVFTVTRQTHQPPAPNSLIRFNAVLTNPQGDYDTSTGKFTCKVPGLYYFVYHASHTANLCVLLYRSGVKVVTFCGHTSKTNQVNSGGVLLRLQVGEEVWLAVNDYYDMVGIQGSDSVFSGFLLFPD
Outline: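 Antibodies captured on Protein L immobilized on a CM4 chip were exposed to human C1q diluted in HBS-EP+ running buffer at 25° C. C1q binding was normalized as C1q bound divided by antibody captured. The surface was regenerated with 10 mM glycine-HCl, pH 1.5.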

Binder | Amount of C1q-binding when that for G1d is Defined as 100
B1 | 21.6 G1d=100
B2 | 12.9 G1d=100
B3 | 0.7 G1d=100
B4 | 12.9 G1d=100
B5 | 24 G1d=100
B6 | 15.2 G1d=100
B7 | 24.2 G1d=100
B8 | 1.7 G1d=100
B9 | 21.8 G1d=100
B10 | 12.4 G1d=100
B11 | 13.3 G1d=100
B12 | 23.9 G1d=100
B13 | 0.8 G1d=100
B14 | 1.3 G1d=100
B15 | 1.3 G1d=100
B16 | 24 G1d=100

What follows are binders tested against T2, FcgRIIaR (human, UniProt P12318 34-217) (assay: SPR, amount bound per captured antibody).
T2 construct: extracellular domain; also called FcγRIIa R type; FcγRIIa (R type)
T2 sequence (looked up): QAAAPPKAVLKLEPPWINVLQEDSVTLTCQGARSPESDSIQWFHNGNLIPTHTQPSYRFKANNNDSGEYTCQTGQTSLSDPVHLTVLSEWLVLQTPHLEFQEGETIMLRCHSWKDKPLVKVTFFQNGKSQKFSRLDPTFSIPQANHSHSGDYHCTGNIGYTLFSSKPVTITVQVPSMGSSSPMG

Binder | Relative FcgRIIaR-binding Activity
B1 | 84.3 IL6R-G1d/IL6R-L=100
B2 | 101 IL6R-G1d/IL6R-L=100
B3 | 77.4 IL6R-G1d/IL6R-L=100
B4 | 11.5 IL6R-G1d/IL6R-L=100
B5 | 14.7 IL6R-G1d/IL6R-L=100
B6 | 98.8 IL6R-G1d/IL6R-L=100
B7 | 28.6 IL6R-G1d/IL6R-L=100
B8 | 87.3 IL6R-G1d/IL6R-L=100
B9 | 64.2 IL6R-G1d/IL6R-L=100
B10 | 97.5 IL6R-G1d/IL6R-L=100
B11 | 20.5 IL6R-G1d/IL6R-L=100
B12 | 105 IL6R-G1d/IL6R-L=100
B13 | 96 IL6R-G1d/IL6R-L=100
B14 | 9.1 IL6R-G1d/IL6R-L=100
B15 | 14.2 IL6R-G1d/IL6R-L=100
B16 | 7.8 IL6R-G1d/IL6R-L=100

The binders below were run against T3, FcgRIIb (human, UniProt P31994 43-217) (assay: SPR, amount bound per captured antibody).
T3 construct: extracellular domain; also called FcγRIIb
T3 sequence (looked up): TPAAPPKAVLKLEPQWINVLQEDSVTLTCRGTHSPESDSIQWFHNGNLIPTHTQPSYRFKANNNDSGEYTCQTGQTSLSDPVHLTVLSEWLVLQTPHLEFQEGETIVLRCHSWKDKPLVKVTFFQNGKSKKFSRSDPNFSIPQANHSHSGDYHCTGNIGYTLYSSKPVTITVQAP

Binder | Relative FcgRIIb-binding Activity
B1 | 196 IL6R-G1d/IL6R-L=100
B2 | 200 IL6R-G1d/IL6R-L=100
B3 | 190 IL6R-G1d/IL6R-L=100
B4 | 62.4 IL6R-G1d/IL6R-L=100
B5 | 84 IL6R-G1d/IL6R-L=100
B6 | 200 IL6R-G1d/IL6R-L=100
B7 | 118 IL6R-G1d/IL6R-L=100
B8 | 192 IL6R-G1d/IL6R-L=100
B9 | 180 IL6R-G1d/IL6R-L=100
B10 | 198 IL6R-G1d/IL6R-L=100
B11 | 97.9 IL6R-G1d/IL6R-L=100
B12 | 198 IL6R-G1d/IL6R-L=100
B13 | 201 IL6R-G1d/IL6R-L=100
B14 | 58.4 IL6R-G1d/IL6R-L=100
B15 | 95.1 IL6R-G1d/IL6R-L=100
B16 | 51.1 IL6R-G1d/IL6R-L=100

These binders were tested against T4, human FcγRIIa R type extracellular domain with C-terminal His tag (human, UniProt P12318 34-217) (assay: SPR, KD of IL6R-G1d/IL6R-L divided by KD of variant).
T4 construct: extracellular domain; also called FcgRIIaR
T4 sequence (looked up): T2 sequence (looked up)

Binder | Relative FcgRIIaR-binding Activity
B17 | 0.02
B18 | 0.39
B19 | 0.01
B20 | 0.02

Each binder was assayed against T5, human FcγRIIa H type extracellular domain with C-terminal His tag (human, UniProt P12318 34-217) in the same assay as above.
T5 construct: extracellular domain; also called FcgRIIaH
T5 sequence (looked up): T2 sequence (looked up) with R134H

Binder | Relative FcgRIIaH-binding Activity
B17 | 0.007
B18 | 0.021
B19 | 0.007
B20 | 0.006

The binders below were run against T6, human FcγRIIb extracellular domain with C-terminal His tag (human, UniProt P31994 43-217) in the same assay as above.
T6 construct: extracellular domain; also called FcgRIIb
T6 sequence (looked up): T3 sequence (looked up)

Binder | Relative FcgRIIb-binding Activity
B17 | 0.5
B18 | 10
B19 | 0.3
B20 | 0.2

What follows are binders tested against T7, human FcγRIa extracellular domain with C-terminal His tag (human, UniProt P12314 16-292) in the same assay as above.
T7 construct: Whole entry named; also called FcgRIa
T7 sequence (P12314 16-292): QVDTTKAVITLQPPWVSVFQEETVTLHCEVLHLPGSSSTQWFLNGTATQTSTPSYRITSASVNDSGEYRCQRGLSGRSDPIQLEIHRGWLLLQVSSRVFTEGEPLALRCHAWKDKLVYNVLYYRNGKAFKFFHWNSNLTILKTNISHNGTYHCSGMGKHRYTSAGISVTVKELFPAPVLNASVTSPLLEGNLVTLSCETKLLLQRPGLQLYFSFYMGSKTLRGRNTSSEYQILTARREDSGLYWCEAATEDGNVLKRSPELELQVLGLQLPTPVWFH

Binder | Relative FcgRIa-binding Activity
B17 | 0.006
B18 | 0.029
B19 | 0.014
B20 | 0.003

The binders below were run against T8, human FcγRIIIa V type extracellular domain with C-terminal His tag (human, UniProt P08637 17-208) in the same assay as above.
T8 construct: extracellular domain; also called FcgRIIIaV
T8 sequence (P08637 17-208 F176V): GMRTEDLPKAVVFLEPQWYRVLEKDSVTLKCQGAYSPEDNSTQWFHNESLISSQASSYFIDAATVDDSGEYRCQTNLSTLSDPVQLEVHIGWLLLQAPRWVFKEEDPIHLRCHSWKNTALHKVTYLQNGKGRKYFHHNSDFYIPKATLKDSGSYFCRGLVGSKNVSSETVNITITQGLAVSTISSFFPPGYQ

Binder | Relative FcgRIIIaV-binding Activity
B17 | 0.01
B18 | 0.009
B19 | 0.009
B20 | 0.01

The binders below were run against T4, human FcγRIIa R type extracellular … (assay: SPR, antibody captured, FcgR analyte).

Binder | Kd
B18 | 2.8 µM

What follows are binders tested against T6, human FcγRIIb extracellular domain with … (assay: SPR, antibody captured, FcgR analyte).

Binder | Kd
B17 | 4.6 µM
B18 | 0.21 µM
B19 | 7.9 µM
B20 | 8.5 µM

These binders were tested against T7, human FcγRIa extracellular domain with … (assay: SPR, antibody captured, FcgR analyte).

Binder | Kd
B17 | 0.056 µM
B18 | 0.011 µM
B19 | 0.023 µM
B20 | 0.12 µM

Reference: patent publication US20220411483A1 (Chugai, published 2022)
